Source: US20080026996A1, “Selective Vpac2 Receptor Reptide Agonists” (ELI LILLY AND COMPANY, priority 2004, published 2008)
Where no end group is shown, it is not given here. [ ]: non-standard residue; d: D form.

How the values were obtained:
Assay in all cases: cell-based or functional assay
[1] = target: T1, human VPAC2 receptor (human, UniProt P41587 24-438)
T1 sequence (looked up): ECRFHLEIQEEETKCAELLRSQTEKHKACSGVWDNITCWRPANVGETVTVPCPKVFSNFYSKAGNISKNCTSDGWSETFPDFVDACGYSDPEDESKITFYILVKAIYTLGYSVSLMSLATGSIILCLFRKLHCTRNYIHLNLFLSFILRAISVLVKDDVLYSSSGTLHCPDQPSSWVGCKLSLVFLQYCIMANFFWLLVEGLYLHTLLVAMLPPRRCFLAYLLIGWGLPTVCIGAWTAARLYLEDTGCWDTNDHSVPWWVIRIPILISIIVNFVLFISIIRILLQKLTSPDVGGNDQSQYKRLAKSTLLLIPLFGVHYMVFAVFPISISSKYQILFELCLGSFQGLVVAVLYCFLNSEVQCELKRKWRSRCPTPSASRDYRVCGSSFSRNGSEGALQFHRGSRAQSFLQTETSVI

[2] = target: T2, human VPAC1 receptor (human, UniProt P32241 31-457)
T2 sequence (looked up): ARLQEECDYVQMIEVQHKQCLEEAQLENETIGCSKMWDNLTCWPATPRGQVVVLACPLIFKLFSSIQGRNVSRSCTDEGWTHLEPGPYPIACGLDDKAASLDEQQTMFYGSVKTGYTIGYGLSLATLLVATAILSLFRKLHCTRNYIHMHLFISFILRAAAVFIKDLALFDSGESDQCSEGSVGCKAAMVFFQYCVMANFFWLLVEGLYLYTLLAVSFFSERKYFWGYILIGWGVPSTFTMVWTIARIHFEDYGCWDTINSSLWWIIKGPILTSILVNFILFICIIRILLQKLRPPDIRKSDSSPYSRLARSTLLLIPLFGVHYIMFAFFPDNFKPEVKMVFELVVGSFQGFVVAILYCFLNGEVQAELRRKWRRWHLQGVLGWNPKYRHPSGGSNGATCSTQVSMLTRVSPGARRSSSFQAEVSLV

[3] = target: T3, human PAC1 receptor (human, UniProt P41586 21-468)
T3 sequence (looked up): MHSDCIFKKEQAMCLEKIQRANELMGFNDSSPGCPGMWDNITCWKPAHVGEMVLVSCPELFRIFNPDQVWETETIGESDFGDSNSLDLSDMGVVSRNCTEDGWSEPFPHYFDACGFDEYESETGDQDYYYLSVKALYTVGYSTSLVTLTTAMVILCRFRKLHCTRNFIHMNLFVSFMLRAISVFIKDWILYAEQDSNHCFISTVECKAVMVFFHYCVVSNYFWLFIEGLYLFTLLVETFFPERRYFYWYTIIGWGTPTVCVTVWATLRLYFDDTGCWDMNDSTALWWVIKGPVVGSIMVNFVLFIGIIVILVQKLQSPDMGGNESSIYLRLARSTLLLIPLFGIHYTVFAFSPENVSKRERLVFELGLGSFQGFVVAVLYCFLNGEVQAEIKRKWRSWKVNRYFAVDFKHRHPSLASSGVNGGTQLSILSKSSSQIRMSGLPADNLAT

HGDAVFTDNYTRLRKQVAAKKYLQSIKNKRYGGPSSGAPPPS [P43]
EC50 cAMP, DiscoveRx [1]: 5.37 nM
EC50 cAMP, DiscoveRx [2]: 75.6 nM
EC50 cAMP, DiscoveRx [3]: 104 nM

HSDWVFTDNYTRLRKQVAAKKYLQSIKNKRYGGPSSGAPPPS [P56]
EC50 cAMP, DiscoveRx [1]: 109 nM
EC50 cAMP, DiscoveRx [2]: 9.96 nM
EC50 cAMP, DiscoveRx [3]: 405 nM

HSDAVITDNYTRLRKQVAAKKYLQSIKNKRYGGPSSGAPPPS [P63]
EC50 cAMP, DiscoveRx [1]: > 1000 nM
EC50 cAMP, DiscoveRx [2]: > 1000 nM
EC50 cAMP, DiscoveRx [3]: 0.9 nM

HSDAVFTDNYTRLRKQVAAKKYLQSIKNKRYGGPSSGAPPPS [P6]
EC50 cAMP, Alpha Screen [1]: 3.19 nM
EC50 cAMP, DiscoveRx [1]: 2.56 nM
EC50 cAMP, DiscoveRx [2]: 5 nM
EC50 cAMP, DiscoveRx [3]: > 40 nM

HSDAYFTDNYTRLRKQVAAKKYLQSIKNKRYGGPSSGAPPPS [P70]
EC50 cAMP, DiscoveRx [1]: 4.89 nM
EC50 cAMP, DiscoveRx [2]: 27.4 nM
EC50 cAMP, DiscoveRx [3]: 20.7 nM

HSDATFTDNYTRLRKQVAAKKYLQSIKNKRYGGPSSGAPPPS [P62]
EC50 cAMP, DiscoveRx [1]: 13.2 nM
EC50 cAMP, DiscoveRx [2]: 17 nM
EC50 cAMP, DiscoveRx [3]: 137 nM

HSDAVYTDNYTRLRKQVAAKKYLQSIKNKRYGGPSSGAPPPS [P68]
EC50 cAMP, DiscoveRx [1]: 20.3 nM
EC50 cAMP, DiscoveRx [2]: 41 nM
EC50 cAMP, DiscoveRx [3]: 94.7 nM

HSDTVFTDNYTRLRKQVAAKKYLQSIKNKRYGGPSSGAPPPS [P54]
EC50 cAMP, DiscoveRx [1]: 32.8 nM
EC50 cAMP, DiscoveRx [2]: 84.1 nM
EC50 cAMP, DiscoveRx [3]: > 1000 nM

HSDAVVTDNYTRLRKQVAAKKYLQSIKNKRYGGPSSGAPPPS [P66]
EC50 cAMP, DiscoveRx [1]: > 1000 nM
EC50 cAMP, DiscoveRx [2]: < 1000 nM
EC50 cAMP, DiscoveRx [3]: 1.4 nM

HSDAVTTDNYTRLRKQVAAKKYLQSIKNKRYGGPSSGAPPPS [P65]
EC50 cAMP, DiscoveRx [1]: > 1000 nM
EC50 cAMP, DiscoveRx [2]: > 1000 nM
EC50 cAMP, DiscoveRx [3]: 0.7 nM

HSDAVLTDNYTRLRKQVAAKKYLQSIKNKRYGGPSSGAPPPS [P64]
EC50 cAMP, DiscoveRx [1]: > 1000 nM
EC50 cAMP, DiscoveRx [2]: 221 nM
EC50 cAMP, DiscoveRx [3]: 0.1 nM

HSDALFTDNYTRLRKQVAAKKYLQSIKNKRYGGPSSGAPPPS (not fully specified) [P61]
EC50 cAMP, DiscoveRx [1]: 2.14 nM
EC50 cAMP, DiscoveRx [2]: 2.58 nM
EC50 cAMP, DiscoveRx [3]: 11.6 nM

HSDYVFTDNYTRLRKQVAAKKYLQSIKNKRYGGPSSGAPPPS [P51]
EC50 cAMP, DiscoveRx [1]: 91.1 nM
EC50 cAMP, DiscoveRx [2]: 3.61 nM
EC50 cAMP, DiscoveRx [3]: > 1000 nM

HSDVVFTDNYTRLRKQVAAKKYLQSIKNKRYGGPSSGAPPPS [P53]
EC50 cAMP, DiscoveRx [1]: 50.5 nM
EC50 cAMP, DiscoveRx [2]: 118 nM
EC50 cAMP, DiscoveRx [3]: > 1000 nM

HSDAVFTDNYTRLRKQVAAKKYLQSIQNKRYGGPSSGAPPPS [P74]
EC50 cAMP, DiscoveRx [1]: 2.72 nM
EC50 cAMP, DiscoveRx [2]: 0.4 nM
EC50 cAMP, DiscoveRx [3]: 145 nM

HPDAVFTDNYTRLRKQVAAKKYLQSIKNKRYGGPSSGAPPPS [P49]
EC50 cAMP, DiscoveRx [1]: 13.4 nM
EC50 cAMP, DiscoveRx [2]: 22.8 nM
EC50 cAMP, DiscoveRx [3]: 44.2 nM

HVDAVFTDNYTRLRKQVAAKKYLQSIKNKRYGGPSSGAPPPS (not fully specified) [P44]
EC50 cAMP, DiscoveRx [1]: 0.92 nM
EC50 cAMP, DiscoveRx [2]: 5.5 nM
EC50 cAMP, DiscoveRx [3]: 36.6 nM

HSDLVFTDNYTRLRKQVAAKKYLQSIKNKRYGGPSSGAPPPS (not fully specified) [P55]
EC50 cAMP, DiscoveRx [1]: 15.3 nM
EC50 cAMP, DiscoveRx [2]: 134 nM
EC50 cAMP, DiscoveRx [3]: > 1000 nM

HSDAFFTDNYTRLRKQVAAKKYLQSIKNKRYGGPSSGAPPPS [P58]
EC50 cAMP, DiscoveRx [1]: 11.8 nM
EC50 cAMP, DiscoveRx [2]: 44.1 nM
EC50 cAMP, DiscoveRx [3]: 35.6 nM

HTDAVFTDNYTRLRKQVAAKKYLQSIKNKRYGGPSSGAPPPS [P45]
EC50 cAMP, DiscoveRx [1]: 11.6 nM
EC50 cAMP, DiscoveRx [2]: 1.75 nM
EC50 cAMP, DiscoveRx [3]: 316 nM

HLDAVFTDNYTRLRKQVAAKKYLQSIKNKRYGGPSSGAPPPS [P46]
EC50 cAMP, DiscoveRx [1]: 121 nM
EC50 cAMP, DiscoveRx [2]: 57.5 nM
EC50 cAMP, DiscoveRx [3]: > 1000 nM

HSDFVFTDNYTRLRKQVAAKKYLQSIKNKRYGGPSSGAPPPS [P52]
EC50 cAMP, DiscoveRx [1]: 140 nM
EC50 cAMP, DiscoveRx [2]: 37.5 nM
EC50 cAMP, DiscoveRx [3]: > 1000 nM

HSDAWFTDNYTRLRKQVAAKKYLQSIKNKRYGGPSSGAPPPS [P69]
EC50 cAMP, DiscoveRx [1]: 6.39 nM
EC50 cAMP, DiscoveRx [2]: 8.48 nM
EC50 cAMP, DiscoveRx [3]: 104 nM

HSDAVFTDNYTRLRKQVAAKKYLQSIKNKRYC [P37]
EC50 cAMP, DiscoveRx [1]: 1.68 nM
EC50 cAMP, DiscoveRx [2]: 6.4 nM
EC50 cAMP, DiscoveRx [3]: 35.6 nM

H[dS]DAVFTDNYTRLRKQVAAKKYLQSIKNKRYGGPSSGAPPPS [P48]
EC50 cAMP, DiscoveRx [1]: 9.55 nM
EC50 cAMP, DiscoveRx [2]: 9.93 nM
EC50 cAMP, DiscoveRx [3]: 95.9 nM
